Experimental data reported in patent publication US20230151091A1 (NEW YORK UNIVERSITY, published 2023).

Tests used:
human MuSK [1] = target: T1, human MuSK (human, UniProt O15146 24-495); assay: Biacore T200, off rate at pH 5.5 against pH 7.4
T1 construct: Recombinant protein coated on ELISA plates (R&D Systems cat. 10189-MK) or on the Biacore chip; also called human muscle-specific tyrosine protein kinase; full length human MuSK
T1 sequence: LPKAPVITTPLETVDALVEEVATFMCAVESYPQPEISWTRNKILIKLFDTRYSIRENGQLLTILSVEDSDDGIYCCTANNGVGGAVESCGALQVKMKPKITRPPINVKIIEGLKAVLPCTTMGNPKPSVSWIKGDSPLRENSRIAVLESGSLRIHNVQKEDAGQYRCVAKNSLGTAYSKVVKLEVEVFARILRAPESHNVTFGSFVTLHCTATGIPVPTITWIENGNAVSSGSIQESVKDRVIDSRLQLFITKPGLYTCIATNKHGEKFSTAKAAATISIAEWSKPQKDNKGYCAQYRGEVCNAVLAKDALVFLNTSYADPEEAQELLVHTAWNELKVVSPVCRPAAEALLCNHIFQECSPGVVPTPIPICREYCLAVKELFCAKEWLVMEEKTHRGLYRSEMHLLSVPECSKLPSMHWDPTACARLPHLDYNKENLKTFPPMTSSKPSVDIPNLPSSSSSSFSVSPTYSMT
Description: (§1) In order to study pH dependent binding of the antibodies described herein to MuSK, a Biacore T200 was used. Briefly, a CMS chip was coated with human and mouse MuSK (200RU) and 22.2 nM of Fab was applied and kinetic parameters calculated. Association was done at pH7.4, dissociation was done at pH 7.4 and also at pH 5.5. The following Fabs were tested, X2, X2m4, X3, X9, X17, 3B2 and 3B2g2m1 (Table 10 and FIG. 23). […] Binding affinity at pH 5.5 is very low, resulting in a rapid dissociation at endosomal pH allowing 3B2g2m1 to recycle.

mouse MuSK [2] = target: T2, mouse MuSK (mouse, UniProt Q61006 22-494, limits assumed); assay: Biacore T200, off rate at pH 5.5 against pH 7.4
T2 construct: Coated on ELISA plates or on the Biacore chip; also called full length mouse MuSK; mouse MuSK (in house produced in HEK293 cells)
T2 sequence (looked up): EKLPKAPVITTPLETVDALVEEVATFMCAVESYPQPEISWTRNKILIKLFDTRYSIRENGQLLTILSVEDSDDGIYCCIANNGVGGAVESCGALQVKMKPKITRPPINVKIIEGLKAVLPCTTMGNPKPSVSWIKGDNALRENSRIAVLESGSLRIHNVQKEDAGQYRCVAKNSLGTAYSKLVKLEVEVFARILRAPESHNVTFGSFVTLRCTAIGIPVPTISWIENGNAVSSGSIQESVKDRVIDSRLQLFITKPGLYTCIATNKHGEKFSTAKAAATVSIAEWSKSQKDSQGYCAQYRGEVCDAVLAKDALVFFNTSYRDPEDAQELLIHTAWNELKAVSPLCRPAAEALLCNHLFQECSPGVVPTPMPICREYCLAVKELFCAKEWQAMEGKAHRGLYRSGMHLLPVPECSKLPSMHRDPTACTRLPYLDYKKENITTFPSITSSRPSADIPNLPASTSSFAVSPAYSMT
Description: as §1

human MuSK [3] = target: T1, human MuSK; assay: Biacore T200, MuSK on chip (200RU), 22.2 nM Fab, dissociation pH 5.5
Description: as §1

mouse MuSK [4] = target: T2, mouse MuSK; assay: as above
Description: as §1

human MuSK [5] = target: T1, human MuSK; assay: Biacore T200, MuSK on chip (200RU), 22.2 nM Fab, dissociation pH 7.4
Description: as §1

mouse MuSK [6] = target: T2, mouse MuSK; assay: as above
Description: as §1

[7] = target: T3, mFz: Fz domain and C-terminal flanking sequence of mouse MuSK (D307 to T494) with C-terminal Avi- and … (mouse, UniProt Q61006 307-494, limits assumed, biotinylated in vitro using the BirA enzyme); assay: bead-binding assay, IgG format: biotinylated antigen on streptavidin beads, flow cytometry, 1:1 fit; average ± s.d., n=3
T3 construct: also called mouse Fz; not shown: Avi- and His6-tags
T3 sequence (looked up): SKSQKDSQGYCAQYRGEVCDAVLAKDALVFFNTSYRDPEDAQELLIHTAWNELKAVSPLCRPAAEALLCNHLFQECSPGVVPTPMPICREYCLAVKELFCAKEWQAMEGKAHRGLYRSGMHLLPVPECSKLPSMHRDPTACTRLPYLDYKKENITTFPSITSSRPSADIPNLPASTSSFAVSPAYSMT

[8] = target: T4, hECD: full-length extracellular region of human MuSK (E22 to T495) with C-terminal Avi- and His6-tags (human, UniProt O15146 22-495, biotinylated in vitro using the BirA enzyme); assay: as above
T4 construct: also called human ECD; not shown: Avi- and His6-tags
T4 sequence: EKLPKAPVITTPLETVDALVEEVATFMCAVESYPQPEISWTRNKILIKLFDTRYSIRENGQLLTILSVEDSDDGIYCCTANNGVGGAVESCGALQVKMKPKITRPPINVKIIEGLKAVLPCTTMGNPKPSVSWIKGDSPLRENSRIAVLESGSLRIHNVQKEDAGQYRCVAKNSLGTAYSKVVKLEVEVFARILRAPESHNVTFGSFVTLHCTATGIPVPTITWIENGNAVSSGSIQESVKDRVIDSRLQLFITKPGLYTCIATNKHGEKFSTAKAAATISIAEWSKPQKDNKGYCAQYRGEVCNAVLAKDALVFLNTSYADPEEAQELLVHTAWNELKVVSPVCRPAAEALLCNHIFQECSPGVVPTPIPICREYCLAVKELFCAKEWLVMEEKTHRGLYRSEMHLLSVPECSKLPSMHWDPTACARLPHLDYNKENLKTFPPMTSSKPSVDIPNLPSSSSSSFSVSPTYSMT

[9] = target: T5, mECD: full-length extracellular region of mouse MuSK (E22 to T494) with C-terminal Avi- and His6-tags (mouse, UniProt Q61006 22-494, biotinylated in vitro using the BirA enzyme); assay: as above
T5 construct: range 22-494; also called mouse ECD; not shown: Avi- and His6-tags
T5 sequence (looked up): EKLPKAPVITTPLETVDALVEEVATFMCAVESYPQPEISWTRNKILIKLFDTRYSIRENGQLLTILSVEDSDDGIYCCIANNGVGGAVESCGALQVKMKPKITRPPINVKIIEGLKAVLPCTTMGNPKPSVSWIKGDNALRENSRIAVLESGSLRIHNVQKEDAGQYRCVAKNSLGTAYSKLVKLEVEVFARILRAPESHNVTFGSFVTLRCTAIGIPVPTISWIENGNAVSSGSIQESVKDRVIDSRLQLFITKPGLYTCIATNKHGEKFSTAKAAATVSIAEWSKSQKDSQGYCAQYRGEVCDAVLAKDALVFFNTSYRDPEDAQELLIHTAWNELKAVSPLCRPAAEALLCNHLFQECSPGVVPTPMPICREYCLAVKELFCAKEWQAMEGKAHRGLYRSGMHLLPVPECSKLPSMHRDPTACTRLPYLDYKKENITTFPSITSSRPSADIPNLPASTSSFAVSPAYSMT

[10] = target: T6, hFz: Fz domain and C-terminal flanking sequence of human MuSK (K314-T495) with C-terminal Avi- and His6-tags (human, UniProt O15146 314-495, biotinylated in vitro using the BirA enzyme); assay: as above
T6 construct: also called human Fz; not shown: Avi- and His6-tags
T6 sequence: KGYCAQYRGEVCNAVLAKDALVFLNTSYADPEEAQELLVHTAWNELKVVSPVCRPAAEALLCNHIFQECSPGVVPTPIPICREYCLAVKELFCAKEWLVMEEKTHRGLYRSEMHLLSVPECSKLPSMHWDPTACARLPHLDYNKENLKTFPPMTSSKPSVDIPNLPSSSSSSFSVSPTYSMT

B1: X2m4 Fab (Fab, V domains shown)
VH: EVQLVESGGGLVQPGGSLRLSCAASGFTVSSSSIHWVRQAPGKGLEWVASISSSYGSTSYADSVKGRFTISADTSKNTAYLQMNSLRAEDTAVYYCARSEGDRYVSGYSGLDYWGQGTLVTVSS
VL: DIQMTQSPSSLSASVGDRVTITCRASQSVSSAVAWYQQKPGKAPKLLIYSASSLYSGVPSRFSGSRSGTDFTLTISSLQPEDFATYYCQQSGVWLITFGQGTKVEIK
notes: Fab format
For B1, the “Ratio pH 5.5/7.4 of off rate” value (human MuSK [1]) was 0.7, the “Ratio pH 5.5/7.4 of off rate” value (mouse MuSK [2]) was 1.2 and the koff (human MuSK [3]) was 0.00586 s⁻¹. For the same binder, the koff (mouse MuSK [4]) was 0.00416 s⁻¹, the koff (human MuSK [5]) was 0.00867 s⁻¹ and the koff (mouse MuSK [6]) was 0.00337 s⁻¹.

B2: X9 Fab (Fab, V domains shown)
VH: EVQLVESGGGLVQPGGSLRLSCAASGFTFSSSSIHWVRQAPGKGLEWVASIYSSSGSTYYADSVKGRFTISADTSKNTAYLQMNSLRAEDTAVYYCARSGGEFYITSYYGMDYWGQGTLVTVSS
VL: DIQMTQSPSSLSASVGDRVTITCRASQSVSSAVAWYQQKPGKAPKLLIYSASSLYSGVPSRFSGSRSGTDFTLTISSLQPEDFATYYCQQSSSSLITFGQGTKVEIK
notes: Fab format
With B2 the “Ratio pH 5.5/7.4 of off rate” value (human MuSK [1]) was 1.4, the “Ratio pH 5.5/7.4 of off rate” value (mouse MuSK [2]) was 7.1 and the koff (human MuSK [3]) was 0.00083 s⁻¹. It also gave a koff (mouse MuSK [4]) of 0.00105 s⁻¹, a koff (human MuSK [5]) of 0.00059 s⁻¹ and a koff (mouse MuSK [6]) of 0.00015 s⁻¹.

B3: hIgG1-X17 (antibody, V domains shown)
VH: EVQLVESGGGLVQPGGSLRLSCAASGFTISYSSIHWVRQAPGKGLEWVASIYSSSGSTYYADSVKGRFTISADTSKNTAYLQMNSLRAEDTAVYYCARGDHGYYVFGYLGMDYWGQGTLVTVSS
VL: DIQMTQSPSSLSASVGDRVTITCRASQSVSSAVAWYQQKPGKAPKLLIYSASSLYSGVPSRFSGSRSGTDFTLTISSLQPEDFATYYCQQSYKPGALITFGQGTKVEIK
notes: human IgG1 Fc containing LALA mutations; also called hIgG-X17; X17 in human IgG1 format
For B3, the Kd [7] was 0.68 nM, the Kd [8] was 0.86 nM and the Kd [9] was 1.04 nM. For the same binder, the Kd [10] was 0.56 nM.

B4: 3B2g2m1 Fab (Fab, V domains shown)
VH: EVQLLESGGGLVQPGGSLRLSCAASGFTFSDYGMSWVRQAPGKGLEWVSAIPWSGGSTYYKESVKGRFTISRDNSKNTLYLQMNSLRAEDTAVYYCAKRSGRIAFGALDAWGQGTLVTVSS
VL: QTVVTQEPSFSVSPGGTVTLTCGLSSGSVTSSNYPDWYQQTPGQAPRTLIYSTDSRHSGVPDRFSGSILGNKAALTITGAQADDESDYYCGLYSYSGSKNYVFGGGTKLTVL
notes: Fab format
B4 was tested, and the “Ratio pH 5.5/7.4 of off rate” value (human MuSK [1]) was 6.1, the “Ratio pH 5.5/7.4 of off rate” value (mouse MuSK [2]) was 8.9 and the koff (human MuSK [3]) was 0.0288 s⁻¹. It also gave a koff (mouse MuSK [4]) of 0.0679 s⁻¹, a koff (human MuSK [5]) of 0.00472 s⁻¹ and a koff (mouse MuSK [6]) of 0.00766 s⁻¹.
